Experimental data: article PMC9157467, “A cryptic phosphate-binding pocket on the SPFH domain of human stomatin that regulates a novel fibril-like self-assembly” (Current Research in Structural Biology, 2022)
Substitutions are numbered along the chain they refer to. Numbers in names are those of the source.

B1: hSTOM(SPFH)-[R125A] (domain or fragment, human, UniProt P27105 94-202, looked up)
chain: VDMRTISFDIPPQEILTKDSVTISVDGVVYYAVQNATLAVANITNADSATRLLAQTTLRNVLGTKNLSQILSDREEIAHNMQSTLDDATDAWGIKVERVEIKDVKLPVQ
notes: human stomatin (STOM), SPFH domain, residues 94-202, with R125A; Same construct as m1 with one alanine substitution (QuikChange); source: E. coli BL21 (DE3), purified (DEAE Sepharose, Glutathione Sepharose 4 Fast Flow, thrombin cleavage, Superdex 75)
B2: hSTOM(SPFH)-[K188A] (domain or fragment, human, UniProt P27105 94-202, looked up)
chain: B1 chain with A32R, K95A
notes: human stomatin (STOM), SPFH domain, residues 94-202, with K188A; Same construct as m1 with one alanine substitution (QuikChange); source: E. coli BL21 (DE3), purified (DEAE Sepharose, Glutathione Sepharose 4 Fast Flow, thrombin cleavage, Superdex 75)

Target: the molecule itself
Assay: light scattering at 320 nm; lyophilized protein suspended to 400 uM in 50 mM sodium phosphate pH 6.0, 100 mM NaCl or 50 mM bis-Tris/HCl pH 6.0, 100 mM NaCl (mutants also at high phosphate); dissolution followed over time

Row | Protein | binding result
1 | B1 | binds
2 | B2 | binds
